Measurements as given in patent publication US20180237536A1 (INNATE PHARMA, published 2018).
Where a chain is given by its changes, count along the chain named.

T1: recombinant human CD73-His extracellular domain protein (soluble dimer) (human, UniProt P21589 27-547)
T1 sequence: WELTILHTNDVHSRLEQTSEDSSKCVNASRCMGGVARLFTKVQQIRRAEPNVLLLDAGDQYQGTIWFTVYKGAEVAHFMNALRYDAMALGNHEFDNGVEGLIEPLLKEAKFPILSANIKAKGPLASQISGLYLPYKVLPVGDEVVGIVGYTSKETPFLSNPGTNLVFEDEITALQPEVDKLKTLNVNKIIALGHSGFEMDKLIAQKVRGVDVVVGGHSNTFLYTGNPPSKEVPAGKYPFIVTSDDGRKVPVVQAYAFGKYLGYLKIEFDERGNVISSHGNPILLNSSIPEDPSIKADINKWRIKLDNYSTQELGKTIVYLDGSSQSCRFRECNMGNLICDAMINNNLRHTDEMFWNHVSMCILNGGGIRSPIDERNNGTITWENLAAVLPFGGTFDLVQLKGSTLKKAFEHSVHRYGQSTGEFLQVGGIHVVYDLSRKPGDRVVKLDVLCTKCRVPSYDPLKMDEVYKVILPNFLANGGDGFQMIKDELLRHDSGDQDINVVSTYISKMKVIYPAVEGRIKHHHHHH

T2: human CD73 expressed at the cell surface (human, UniProt P21589 27-549)
T2 sequence: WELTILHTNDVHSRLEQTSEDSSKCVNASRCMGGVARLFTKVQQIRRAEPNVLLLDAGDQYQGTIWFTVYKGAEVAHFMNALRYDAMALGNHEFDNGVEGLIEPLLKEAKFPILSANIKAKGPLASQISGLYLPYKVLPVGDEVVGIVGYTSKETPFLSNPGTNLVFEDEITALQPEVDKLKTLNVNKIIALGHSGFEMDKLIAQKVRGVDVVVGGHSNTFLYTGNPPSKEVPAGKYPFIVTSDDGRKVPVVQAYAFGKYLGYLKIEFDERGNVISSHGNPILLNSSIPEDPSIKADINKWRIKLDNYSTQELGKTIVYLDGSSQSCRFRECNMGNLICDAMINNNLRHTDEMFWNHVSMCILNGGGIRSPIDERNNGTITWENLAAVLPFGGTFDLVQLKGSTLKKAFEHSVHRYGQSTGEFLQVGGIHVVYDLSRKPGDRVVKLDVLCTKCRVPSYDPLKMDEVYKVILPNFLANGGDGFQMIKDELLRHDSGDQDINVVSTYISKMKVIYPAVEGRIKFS

T3: human CD73 mutant 3 (human, UniProt P21589 27-549)
T3 construct: Expressed on transfected HEK293T cells
T3 chain: T2 sequence with A73S, E103A, K107A, E108N, A109S

B1: antibody 11E1 (antibody, human IgG1, V domains shown)
VH: EIQLQQSGPELVKPGASVKVSCKASGYAFTSYNMYWVKQSHGKSLEWIGYIDPYNGGTSYNQKFKGKATLTVDKSSSTAYMHLNSLTSEDSAVYYCARGYGNYKAWFAYWGQGTLVTVSA
VL: DAVMTQTPKFLLVSAGDRVTITCKASQSVTNDVAWYQQKPGQSPKLLIYYASNRYTGVPDRFTGSGYGTDFTFTISTVQAEDLAVYFCQQDYSSLTFGAGTKLELK
notes: also called 1E11
B2: antibody 8C7 (antibody, human IgG1, V domains shown)
VH: B1 VH with I2V, T30A, Y35N, E46D, T58S, Q62L, K63T, S77T
VL: SIVMTPTPKFLLVSAGDRVTITCKASQSVSNDVAWYQQKPGQSPKLLIYYASTRYTGVPDRFTGSGYGTDFTFTISTVQAEDLAVYFCQQDYSSLTFGAGTKLELKR
B3: antibody 3C12 (antibody, human IgG1, V domains shown)
VH: B1 VH with E1Q, T30A, Y35N, E46D, T58S, Q62L, K63T, S77T
VL: B2 VL with S1D, I2V, P6Q
B4: antibody 6E1 (antibody, human IgG1, V domains shown)
VH: B1 VH with I2F, S44R, T58S, S85N, G101N
VL: B1 VL with D1S, A2I, V78M

target: T1, recombinant human CD73-His …; test: cell-based or functional assay

First: B1
Second: B2
The “EC50 for CD73 blockade (enzymatic activity of soluble recombinant CD73-his, Cell Titer Glo)” value of the first is 3.1-fold lower: 0.41 µg/mL for the first, 1.29 µg/mL for the second.

B3 and B4 are within 1.5-fold of each other in “EC50 for CD73 blockade (enzymatic activity of soluble recombinant CD73-his, Cell Titer Glo)” value: 0.41 µg/mL for the first, 0.33 µg/mL for the second.

target: T4, cynomolgus CD73 expressed on recombinant host cells (cynomolgus); test: flow cytometry titration on cynomolgus CD73-expressing recombinant host cells, PE secondary, median of fluorescence
T4 construct: whole, on cells; also called cynoCD73

B1 was tested, and the “EC50 (read off the curve)” value was roughly 0.5 µg/mL.

target: T2, human CD73 expressed at the cell surface; test: cell-based or functional assay

First: B1
Second: B2
The “EC50 for neutralization of enzymatic activity of cellular CD73 (MDA-MB-231, free phosphate from AMP)” value of the first is 1.6-fold lower: 0.195 µg/mL for the first, 0.319 µg/mL for the second.

B3 and B4 are within 1.5-fold of each other in “EC50 for neutralization of enzymatic activity of cellular CD73 (MDA-MB-231, free phosphate from AMP)” value: 0.21 µg/mL for the first, 0.209 µg/mL for the second.

Target: T3, human CD73 mutant 3
Test: flow cytometry on transfected HEK293T cells
Procedure: CD73 mutants are generated by PCR. The sequences amplified are run on agarose gel and purified using the Macherey Nagel PCR Clean-Up Gel Extraction kit (reference 740609). The purified PCR products generated for each mutant are then ligated into an expression vector, with the ClonTech InFusion system. The vectors containing the mutated sequences are prepared as Miniprep and sequenced. After sequencing, the vectors containing the mutated sequences are prepared as Midiprep using the Promega PureYield™ Plasmid Midiprep System. HEK293T cells are grown in DMEM medium (Invitrogen), transfected with vectors using Invitrogen's Lipofectamine 2000 and incubated at 37° C. in a CO2 incubator for 24 hours prior to testing for transgene expression
Anti-CD73 antibodies are tested for their binding to each mutant by flow cytometry. A first experiment is performed to determine antibodies that lose their binding to one or several mutants at one concentration. To confirm a loss of binding, titration of antibodies is done on antibodies for which binding seemed to be affected by the CD73 mutations (1-0.1-0.01-0.001 μg/ml). Antibodies 11E1, 8C7, 3C12 or 6E1 lost binding to mutant 3 of CD73, but not to any other mutant. […] Antibody 7G2 lost binding to mutants 5, 6 and 7 (but not mutants 2 or 3).

B2: no binding (tested: 1-0.1-0.01-0.001 µg/ml).

target: T2, human CD73 expressed at the cell surface; test: cell-based or functional assay; remark: another data set of the same source

Compared with B1, B2 is 2.1-fold higher in “EC50 for neutralization of cellular CD73 enzymatic activity (mean over MDA-MB-231, H292, A375)” value: 0.1 µg/mL for the first, 0.21 µg/mL for the second.

B3 and B4 are within 1.5-fold of each other in “EC50 for neutralization of cellular CD73 enzymatic activity (mean over MDA-MB-231, H292, A375)” value: 0.14 µg/mL for the first, 0.13 µg/mL for the second.

Compared with B1, B2 is 3.1-fold higher in “EC70 for neutralization of cellular CD73 enzymatic activity (mean over MDA-MB-231, H292, A375)” value: 0.15 µg/mL for the first, 0.46 µg/mL for the second.

B3 and B4 are within 1.5-fold of each other in “EC70 for neutralization of cellular CD73 enzymatic activity (mean over MDA-MB-231, H292, A375)” value: 0.18 µg/mL for the first, 0.19 µg/mL for the second.

B1 and B2 are within 1.5-fold of each other in “EC100 for neutralization of cellular CD73 enzymatic activity (mean over MDA-MB-231, H292, A375)” value: 0.52 µg/mL for the first, 0.72 µg/mL for the second.

Compared with B3, B4 is 2.3-fold higher in “EC100 for neutralization of cellular CD73 enzymatic activity (mean over MDA-MB-231, H292, A375)” value: 0.3 µg/mL for the first, 0.68 µg/mL for the second.

target: T2, human CD73 expressed at the cell surface; test: flow cytometry titration on human CD73-expressing recombinant host cells, PE secondary, median of fluorescence
Procedure: MDA-MB-231 cells are available from ATCC (reference HTB-26). 10⁵ cells resuspended in PBS/0.2% BSA/0.02% NaN3 (named “staining buffer”) are distributed into round bottom 96W-microplates. Dose-range of anti-CD73 antibodies was added to the plates and cells are incubated for 45 min at 4° C. Cells were washed three times in staining buffer by spinning plates at 400 g for 3 min at 4° C. PE-coupled goat anti-mouse or goat anti-human IgG Fc fragment secondary antibodies (Beckman Coulter) diluted in staining buffer were added to the cells and plates are incubated for 30 additional minutes at 4° C. Cells were washed three times as described above and analyzed on an Accury C6 flow cytometer equipped with an HTFC plate reader.
Median of fluorescence vs. antibodies concentration was plotted on graphs and EC50 is calculated using GraphPad Prism program.

B1 and B4 are the same in “EC50 (read off the curve)” value: roughly 0.5 µg/mL for the first, roughly 0.5 µg/mL for the second.
